In article doi:10.1101/2021.03.01.433427 (bioRxiv, 2021):

Target: the molecule itself
Assay: solid state NMR

B1: His-tagged TDP-43-LC (low complexity domain of the TAR DNA-binding protein 43, residues 262-414) (domain or fragment)
chain: PKHNSNRQLERSGRFGGNPGGFGNQGGFGNSRGGGAGLGNNQGSNMGGGMNFGAFSINPAMMAAAQAALQSSWGMMGMLASQQNQSGPSGNNQNQGNMQREPNQAFGSGNNSYSGSNSGAAIGWGSASNAGSGSGFNGGFGSSMDSKSSGWGM
B1: binds.
